Assay: yeast display, Sf9 membrane polyspecificity reagent, FACS + sequencing; frameworks hold sequencing errors
Procedure, shortened: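 A nanobody's polyreactivity label depends on the gate it was sorted from. Yeast display cells were stained with 10% biotinylated, detergent-solubilized Sf9 membrane reagent for 1 hour at 4 °C, enriched on streptavidin microbeads and sorted by FACS. The low and high (top ~1%) gates were set on anti-HA fluorescence for expression and streptavidin fluorescence for reagent binding.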

Row | Sequence | polyreactivity (PSR sort gate)
1 | QVQLVESGGGLVQAGGSLRLSCAASGRTFKKYAMGWYRQAPGKERELVAGITGSGGSTYYADSVKGRFTISRDNAKNTVYLQMNSLKPEDTAVYYCAAYAYGGWHSQDGGNYWGQGTQVTVSS | low polyreactivity
2 | QVQLEESGGGLVQAGGSLRIICAASGRTFQLYAMGWYRQAPGKERELVAAITWSSGRTSYADSVKGRFTISRDNAKNTVYLQMNSLKPEDTAVYYCAADVWGGLLPGYDYWGQGTQVTVSS | high polyreactivity
3 | QVQLVESGGGLVQAGGSLRLSCAASGFIFRRNAMGWYRQAPGKERELVATISSGVGTYYADSVKGRFTISRDNAKNTVYLQMNSLKPEDTAVYYCATLVHYLYTGYRAYYSYRLDYWGQGTQVTVSS | high polyreactivity
4 | QVQLVESGGGLVQAGGSLRLSCAASGNTFVTKAMGWYRQAPGKERELVAAINSSGGSTYYADSVKGRFTISRDNAKNTVYLQMNSLKPEDTAVYYCAADPLGITSGYGYWGQGTQVTVSS | low polyreactivity
5 | QVQLVESWGGLVQAGGSLRLSCAASGSTFTPYVMGWSRQAPGKERELVAAISKRGGSTYYADSVKGRFTISRDNANNSVYLQMNSLKPADTAVYYCAAVQPAWGNGYWGQGTQVTVSS | high polyreactivity
6 | QVQLVESVGGLVQAGGSLRLSCAASGRTFFPYAMGWYRQAPGKEREFVAAITKTDDSTYYADSVKGRFTISRDNAKNTVYLQMNSLKPEDTAVYYCNAGDTQIRFYYWGQGTQVTVSS | low polyreactivity
7 | QVQHVESGGGLVQAGGSLRLSCAASGSILDIYAMGWYRQATGKERELVAAITGGGSTNYADSVNGRFTISRDNAKNTVYLLMNSLKPEDTAVYYCAAGTYLNGGGEYWGQGTQVTVSS | low polyreactivity
8 | QVQLVESGGGLVQAGGSLRLSCAASGLILSDYAMGWYRQAPGKERELVATITSVGTTKYADSVKGRVTISRDNAKKTVYVQLHSLKPEDTAVYYCAAEFIRGYGESYDYWGQGTQVTVSS | low polyreactivity
9 | QVQLVESGGGLVQAGGSLRLSCAASGLIFTYYAMGWYRQAPGKERELVAAITSGGSTNYADSVKGRFTISRDNAKYTVYLQMNSLKPEDTAVYYCAADYDTGSERYEYWGQGSQVTVSS | low polyreactivity
10 | QVQLVESGGGLVQAGGSLRLSCAASGSTFYTYALGWYRQAPGKERELDAAITYNGGSTYYADSVKGRFTISRDNAKNTVYLQMNSLKPEDTAVYYCARTIYLGSRVNGYWRYDYWGQGTQVTVSS | high polyreactivity
11 | QVQLVESGGGLVQAGGSLRLSCAASGSIFGYYAMGWYRQAPGKERELVAAISYRGGSTYYADSVKGRFTISRDNAKNTVYLQMNSLKPEDTAVYYCNAPFLGAHHYGYEYWGQGTQVTVSS | high polyreactivity
12 | QVQHVESGGGLVQAGGSLRLICAASGSTFRGYAMGWYRPAPGKERELVAAITSSGGSTYYADSVKGRFTISRDNAKNTVYLQMNSLKPEDTAVYSCAAASRRFGLYGYWGQGTQVTVSS | high polyreactivity
13 | QVQLVESGGGLVQAGGRLRLSCAASGSISQTNAMGWYRKAPGKERELVAAISGSGGSTYADSVKGRFTISRDNAKNTVYLQMNSLKPEDTAVYYCARDRYYTREWYWYRHDHWGQGTQVTVSS | low polyreactivity
14 | QVQLVESGGGLVQAGGSLRLSCAASGSTLFWNAIGWYRQAPGKERELVAVISFSGVSTYYADSVKGRFTISRDNAKNTVYLQMNSLKPEDTAVYYCAAEVPHWPYYGRLHDRDYWGQGTQVTVSS | low polyreactivity
15 | QVQLVESGGGLVQAGGSLRLSCAASGRTFVTNAMGWYRQAPGKERELVAAISSSGGSTYYADSVKGRFTISRDKAKNTVYLQMNSLKPEDTAVYYCAVGGQTKGQYDYWGQGTQVTVSS | low polyreactivity
16 | QVQLVESGGGIVQAGGSLRLSCSASGRNSGVNAMGSYRQAPGKERELVATISGSGGRTYYADSVKERFTISRDNAKNTVYLQMNSLKPEDTAVYYCNTLVQRGGYFSRGFDYWGQGTQVTVSS | low polyreactivity
17 | QVQLEESGGGLVQAGGSLRLSCAASGRTFGWNVMGWYRQAPGKERELVAAISGGGTSTYYADSVKGRFTISRDNAKNTVYLQMNSLNPEDTAVYYCNAYYPGSYYPRSGRYDYWGQGTQVTVSS | high polyreactivity
18 | QVQLVESGGGLVQAGGILRLSCAAYGRTFSRYGMGWYRHAPGKERQLVADITWRGDSTYYADSVKGRFTISRDNAKNTVYLQMNSLKPEDTAVYYCAVYWRSLYYGYTYDYWGQGTQVTLSS | high polyreactivity
19 | QVQLVESGGGLVQAGGSLRLSCAASGSTFYLNAMGWYRQAPGKERELVAAITVSGGSTYYADSVKGRFTISRDNAKNTVYLQMNSLKPEDTAVYYCARELLSPTYQRWYYYWGQGTQVTVSS | low polyreactivity
20 | QVQLVESGGGLVQAGGSLRLSCAASGRTLGTNAMGWYRQARGKERELVAAISRTGTSTYYADSVKGRFTISRDNAKNTVYLQMNSLKPEDTAVYYCAVRVPVSIPPGNYYYWGQGTQVTVSS | high polyreactivity
21 | QVQLVESGGGLVQAGGSLRLSCAASGRTFWFNAMGWYRQAPGKARELVAAISGITGSTYYADSVKGRITISRDNAKNTVYLQMNSLKPEATAVYYCATNRRGTWDYDYWGQGTQVTVSS | low polyreactivity
22 | QVQLVESGGGLVQAGGSLRLSCAASGITFSNYAMGWYRQAPGKERELVAAITLSGGRTYYADSVKGRFTISRDNAKNTVYLQMNSLKPEDTAVYYCAAGRTRRPLGGTTKYYYWGQGTQVTVSS | high polyreactivity

Row | Sequence | polyreactivity (PSR sort gate)
23 | QVQHVQSGGGLVQAGGSLRLSCAASGYIFWSYEIGGYRQAPGKERELDATITSGDSTYYADSVKGRFTISRDNAKNTVYLQMKSLKPEDTALDYCAACTYYRLTYWLREYDYSGQGTQVTVSS | low polyreactivity
24 | QVQLVESGGGLVQAGRSLRLSCAASGRIFISYTMGWYRPAPGKERELVAGIDSSGTSTYYADSVKGRFTISRDYAKNTVYLQMNSLIPEDTAVYYCNVVGNWKDTSTELDYWGQGTQVTVSS | low polyreactivity
25 | QVQLVETGGGLVQAGGSLRLSCAASGRTFAYYAMGWYRQAPGKERELVAAISSGGRTNYADSVKGLFTISRDNAKNTVYLQMNSLKPEDTAVYYCAAVRWVYPRRYYYWGQGTQVTVSS | high polyreactivity
26 | QVQLVESGGGLVQAGGSLRLSCAASGSTFTLYVMGWYRQAPGKERELVAAISRGDTTNYADSVKGRFTISRDNAKNTVYLQMNSLKPEDTAVYYCAATYPTFFYWSKGYERDYWGQGTQVTVSS | low polyreactivity
27 | QVELVASGGGLVQAGGSLRLSCAASGSTFAANAMGWYRQAPGKERELVAAITSGGGSTYYADSVKGRFTISRDNEKITVYLQMNSLKPEDTAVYYCAALQSHGVDYDYWGLGTQVTVSS | low polyreactivity
28 | QVQLVESGGGLVQSGGSLRLSCAASGFTLYYYAMGWYRQAPGKERELVARISGSSGRTYYADSVKGRFTISRDNAMNTFYLQMNSLKPEDTAVYFCAARYYTSATMDYWGQGTQVTVSS | high polyreactivity
29 | QVQLVESGGGLVQAGGSLRLSCAASGITLVRYAMGWYRQAPGKERELVASIRGTGGSTYYADSVKGRFTISRDNAKNTVYLQMNSLKPEDTAVYYCAAGRYDYWGQGTQVTVSS | high polyreactivity
30 | QVQLVESGGGLVQAGGSLRLSCAASGITFDTYAMGWYRQAPGKERELVAAISKSGGSTYYADSVKGRFTISRDNAKNTVYLQMNSLKPEDTAVYYCAKDAGSRTVREFGYWGQGTQVTVSS | high polyreactivity
31 | QVQLVESGGGLVQAGGSLRLSCAASGFTFEGYAMGWYRQAPGKERELVAAISDNGGRTYYADSVKGRFTISRDNAKNTVYLQMHPLTPEETEVYYCNARPAYSGPDYDYYHGRRYDYWGQGTQVTVSS | low polyreactivity
32 | QVQLVESGGGLVQAGGSLRLSCAASGRTFKPYAMGWYRQARGKERELVAAISTRGGSTYYADSVKGRFTISRDNAKNTVYLQMNSLKPEDTAVYYCAATQPGRDYDYWGQGTQVTVSS | low polyreactivity
33 | QVQLVESGGGLVQAGGSLRLSCAASGRIFNYNAMGWYRQAPGKERELVAAITSSGDSTNYADSVKGRFTISRDNAKNTVYLQMNSLKPEDTAVYYCNASSPYDYDWGQGTQVTVSS | low polyreactivity
34 | QVQLVESGGGLVQAGGSLRLSCAASGSTFAWYAMGWYRQATGKETELVAVITRRGGSTYYADSVKGRFTISRDNAKNTVYLQMNSLKPEDTAVYYCAAEYQVSHWYRTASVYDYDSWGQGTQVTVSS | high polyreactivity
35 | QVQLVESGGGLVQAGGSLRLSCAASGRTFYVYDMGWYRQAPGKERELVAVISSSGSTNYADSVKGRFTISRDNAKNTVYLQMNSLKPEDTAVYYCNRRRWYFFSLDYWGQGTQVTVSS | high polyreactivity
36 | QVQLVESGGGLVQAGGSLRLSCAASGSIFYWYDMGWYRQAPGKERELVAAITNDGDSTYYADSVKGRFTISRDNAKNTVYLQMNSLKPEDTAVYYCAADVLFYYEYGSWGQGTQVTVSS | low polyreactivity
37 | QVQLVESGGGLVQAGGSLRLSCAASGSTFTANALGWYRQAPGKERELVAAITKSGGDTYYADSVKGRFTISRDNAKNTVYLQMNSLKPEDTAVYYCAAESSYFVALTQFYTVEFYYWGQGTQVTVSS | low polyreactivity
38 | QVQLVESGGGLVQAGGSLRLSCAASGNIFPAYVMGGYRQAPGKDRELVAAITDSDGSTFYADSVKGRFTISRDNAKNTVYLQMNSLKAEDTAVYYCAAYSYRQGWGFGYWGQGTQVTVSS | low polyreactivity
39 | QVQLVESGGGLVQAGGSLRLSSAASGSTSPRNAMGWYRQAPGKERELVAAISSGGRTNYADSVKGRFTISRDNAKNTVYFQMHSLKPEDTAVYYCAAVVHSTYWAQGTQVTVSS | low polyreactivity
40 | QVQLVESGAGLVQAGGSLRLSCAASGFTFDQYAMGWYRPATGKERELVAGISWGGGTTYYADSVKGRFTISRDNAKNTVYLHMNSLKPEDTAVYYCAAVRPGYPYYGSDYWGPGTQVTVSS | low polyreactivity
41 | QDQLVESVGGLVQAGVSLRLSSASSGRTFWAYAMGWYRQAHGKERELVAAISRNGGSTYYADSVKGRFTISRDHAKNTVYLQMNSLKPEDTAVYYCAAESRYYYELGYWGQGTQVTVSS | high polyreactivity
42 | QVQLVESGGGLVQAGGSLRLSCAASGNTFAGNAMGWYRQATGKERELVAAISWSGTRTYYADSVKGRFTISRDNAKNTVYLQMNSLKPEDTAVYYCAKLSTNKEYYWGQGTQVTVSS | high polyreactivity
43 | QVQLVESGGGLVQAGGSLRLSCAASGFTFNKNAMGWYRQEPRKERELVAAISSSVGSTRYADSVKGRFTISRDNAKNTVYLQRNSLKPEDTAVYYCAVYVTPHSGWWLYDYWGQGTQVTVSS | high polyreactivity

Source: the nanobody polyreactivity screen of Harvey et al. (2022)
